Measured values as given in paper doi:10.1101/2023.02.14.528348v1.

Substrate: C[C@H](N)C(=O)N[C@@H](C)C(=O)O
Assay: proton-coupled uptake, pyranine fluorescence assay in proteoliposomes
Assay type: biochemical, Escherichia coli
Details: valinomycin / potassium gradient driven membrane potential

B1: DtpB (Escherichia coli K-12) (protein)
chain: MNTTTPMGMLQQPRPFFMIFFVELWERFGYYGVQGVLAVFFVKQLGFSQEQAFVTFGAFAALVYGLISIGGYVGDHLLGTKRTIVLGALVLAIGYFMTGMSLLKPDLIFIALGTIAVGNGLFKANPASLLSKCYPPKDPRLDGAFTLFYMSINIGSLIALSLAPVIADRFGYSVTYNLCGAGLIIALLVYIACRGMVKDIGSEPDFRPMSFSKLLYVLLGSVVMIFVCAWLMHNVEVANLVLIVLSIVVTIIFFRQAFKLDKTGRNKMFVAFVLMLEAVVFYILYAQMPTSLNFFAINNVHHEILGFSINPVSFQALNPFWVVLASPILAGIYTHLGNKGKDLSMPMKFTLGMFMCSLGFLTAAAAGMWFADAQGLTSPWFIVLVYLFQSLGELFISALGLAMIAALVPQHLMGFILGMWFLTQAAAFLLGGYVATFTAVPDNITDPLETLPVYTNVFGKIGLVTLGVAVVMLLMVPWLKRMIATPESH
Km: 290 ± 40 µM
